These results are taken from patent US20050101770A1 (SCHERING, published 2005).

Test [1] deals with T1, Monoclonal humanized antibody SCH 708980 to recombinant human IL-10 (humanized 12G8).
T1 construct: also called h12G8; hu12G8
The test can be described thus: competitive ECLA (IGEN): unlabeled IL-10 varied, competitor hIL-10-biotin. The text has this:
(§1) Materials used. 96 well Polypropylene plates (Costar, Cat. No. 3365, Fisher Sci. Cat. No. 07200697); assay buffer of 0.1% BSA, 0.05% tween 20, PBS pH 7.5; paramagnetic beads (Streptavidin-Dynabeads, Igen, Inc., Cat. No. 110029); recombinant human IL-10 dimer (hIL-10-dimer); recombinant human IL-10-monomer (hlL-10-mono); recombinant mouse IL-10 (mIL-10); recombinant cyno IL-10 (cyno IL-10); and recombinant hIL-10Ra (hL-10Ra): FLAG-tagged protein. Ori-Tag labeled anti-FLAG M2 monoclonal antibodies were prepared using Ori-Tag-NHS ester (Igen, Inc. Cat. No. 110034) according to manufacturer's protocol (OriTag label: IgG challenge ratio 8:1). Anti-Flag M2 monoclonal antibodies were purchased from Sigma (Cat. No. F3165). Ori-Tag labeled anti hIgG 1A2 monoclonal antibodies were prepared as above using rat anti hIgG monoclonal antibodies. Ori-Tag labeled anti rat IgG antibodies were prepared as above from polyclonal Goat anti rat IgG (H+L) antibodies (Jackson Immunoresearch Laboratories, Inc. PA, Cat. No. 112-005-143). Biotinylated recombinant human IL-10 (hIL-10-biotin) was prepared using TFP-PEO-biotin (Pierce, Cat. No. 21219) according to manufacturer's recommendations (Pierce bulletin 0874). The rat anti hIL-10 mAb 12G8 (r12G8): JES3.12G8 and humanized anti hIL-10 mAb 12G8 (hl2G8-1) were prepared as described herein.
(§2) Protocol. ⅓ serial dilutions in 50 microliters of the assay buffer were made in 96-well microtiter plate for all unlabeled IL-10 preparations (mIL-10, cyno IL-10, hIL-10 dimer, hIL-10 mono) starting with 3 μg/ml in the first well. All samples were run in duplicates. 50 μl of hIL-10-biotin at 25 ng/ml was added to each well, followed by the addition of either hIL-10Ra (50 μl at 100 ng/ml) or […] (50 μl at 10 ng/ml). 50 microliters of Ori-Tag conjugated secondary antibodies was added to each well at 500 ng/ml conc. For hIL-10Ra, r12G8 and h12G8 the following Ori-Tag conjugated were used accordingly: anti-FLAG M2-OriTag, anti-rat IgG-OriTag and anti hIgG 1A2-OriTag. Finally to each well 50 μl of Streptavidin-Dynabeads at 0.1 mg/ml was added. After a one hour incubation at room temperature the plate was processed by the M-series M8/384 analyzer. Percent inhibition of the signal by unlabeled IL-10 preparations was calculated relative to the control samples. To plot the data and calculate IC₅₀ the GraphPad Prism Software was used.

Test [2] deals with T2, rat anti hIL-10 mAb 12G8 (r12G8): JES3.12G8.
T2 construct: Rat monoclonal antibody; also called Rat 12G8; JES.12G8
Described as above.
Source text: as §1, §2

The target in test [3] is T3, recombinant hIL-10Ra (hIL-10Ra): FLAG-tagged protein (human, UniProt Q13651 22-235).
T3 construct: The order of the receptor part and the FLAG tag is unknown; also called huIL-10Ra; not shown: FLAG tag
T3 sequence (looked up): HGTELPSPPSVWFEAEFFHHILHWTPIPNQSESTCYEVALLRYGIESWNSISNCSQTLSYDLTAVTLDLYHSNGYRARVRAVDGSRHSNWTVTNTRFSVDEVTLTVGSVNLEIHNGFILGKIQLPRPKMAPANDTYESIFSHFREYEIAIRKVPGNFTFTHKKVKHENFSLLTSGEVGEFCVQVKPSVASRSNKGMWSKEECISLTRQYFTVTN
Nature of the test: competitive ECLA (IGEN): unlabeled IL-10 against hIL-10-biotin for FLAG-tagged hIL-10Ra.
Source text: as §1, with “Biotinylated recombinant human IL-10 (hIL-10-biotin) was prepared using TFP-PEO-biotin (Pierce, Cat. No. 21219) according to manufacturer's recommendations (Pierce bulletin 0874). The rat anti hIL-10 mAb 12G8 (r12G8): JES3.12G8 and humanized anti hIL-10 mAb 12G8 (hl2G8-1) were prepared as described herein.” left out
Protocol. ⅓ serial dilutions in 50 microliters of the assay buffer were made in 96-well microtiter plate for all unlabeled IL-10 preparations (mIL-10, cyno IL-10, hIL-10 dimer, hIL-10 mono) starting with 3 μg/ml in the first well. […] Percent inhibition of the signal by unlabeled IL-10 preparations was calculated relative to the control samples. […]

Test [4] has as its target T1, Monoclonal humanized antibody SCH …. Nature of the test: IGEN competitive ECLA, mean ± S.D. (n); summary of Table 15.
Source text: as §1, §2

In test [5] the target is T2, rat anti hIL-10 mAb 12G8 (r12G8): …. The test is described as above.
Source text: as §1, §2

B1: recombinant mouse IL-10 (mIL-10) (ligand, UniProt P18893 19-178, looked up)
chain: SRGQYSREDNNCTHFPVGQSHMLLELRTAFSQVKTFFQTKDQLDNILLTDSLMQDFKGYLGCQALSEMIQFYLVEVMPQAEKHGPEIKEHLNSLGEKLKTLRMRLRRCHRFLPCENKSKAVEQVKSDFNKLQDQGVYKAMNEFDIFINCIEAYMMIKMKS
Take B1: the IC50 in test [1] is 53 nM; in test [2], 37.9 nM; in test [4] it was 53 nM; in test [5], 38 nM. In addition, the binding result in test [3] is “no binding (tested: unlabeled IL-10 titrated from 3 µg/ml)”.
